Test results as given in paper PMC5863373, “Characterization of association of human mitochondrial lysyl-tRNA synthetase with HIV-1 Pol and tRNA3^Lys” (BMC Biochemistry, 2018).

B1: p38, scaffold protein of the multi-synthetase complex (AIMP2), His-tagged (natural protein, human, UniProt Q13155 1-320, looked up)
chain: MPMYQVKPYHGGGAPLRVELPTCMYRLPNVHGRSYGPAPGAGHVQEESNLSLQALESRQDDILKRLYELKAAVDGLSKMIQTPDADLDVTNIIQADEPTTLTTNALDLNSVLGKDYGALKDIVINANPASPPLSLLVLHRLLCEHFRVLSTVHTHSSVKSVPENLLKCFGEQNKKQPRQDYQLGFTLIWKNVPKTQMKFSIQTMCPIEGEGNIARFLFSLFGQKHNAVNATLIDSWVDIAIFQLKEGSSKEKAAVFRSMNSALGKSPWLAGNELTVADVVLWSVLQQIGGCSVTVPANVQRWMRSCENLAPFNTALKLLK
notes: also called His-tagged p38
B2: mLysRS derivative with a C-terminal deletion of 22 aminoacid residues, with a C-terminal HA-tag (domain or fragment)
chain: not shown

How the values were obtained:
[1] = biological target: T1, human mitochondrial lysyl-tRNA synthetase with a C-terminal HA-tag (human, UniProt Q15046-2); assay: AlphaScreen or HTRF; conditions: both partners purified
T1 construct: also called mLysRS; mLysRS-HA; source: E. coli, purified as described [12]

[2] = biological target: T2, HIV-1 integrase with a C-terminal His6 tag (HIV-1 (pNL4-3)); assay: AlphaScreen or HTRF; conditions: both partners purified
T2 construct: source: High Five insect cells (baculovirus), purified (Ni-NTA, Mono S); not shown: His6, C-terminal, kept

Binder | Kd [1] | Kd [2]
B1 | 0.5 nM | –
B2 | – | 8.3 nM
